Assay results: the supplement of paper PMC10724198
± gives the standard deviation of the averaged measurements.

System: Saccharomyces cerevisiae
Experiment: protein stability index of tFT-peptide fusion (C-terminal peptide) (PSI (0-1 scale)); higher = more stable (slower turnover)
Conditions: genetic background: wild type; temperature: 30 C
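Also: PSI is a weighted mean of sequencing reads over stability bins, variants kept only with over 10 reads, mCherry proximal and sfGFP distal, peptide attached via GGGS linker.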

Row | Sequence | protein stability index
1 | ITKELHEGEYLY | 0.727 ± 0.0086
2 | AYVHGSINPMQP | 0.691 ± 0.011
3 | LSGPPVSVQRSF | 0.594 ± 0.03
4 | VGTQIGLWVAQV | 0.591 ± 0.041
5 | LSGLVPSLGCRR | 0.786 ± 0.06
6 | LHTLPLVLSLPA | 0.534 ± 0.025
7 | GSGVGSRARRGR | 0.695 ± 0.02
8 | RLPHPHPVRSLP | 0.7 ± 0.022
9 | YRPPPLSPPSPP | 0.695 ± 0.013
10 | WAGGGGGRVCGW | 0.799 ± 0.11
11 | RKTKKKKENKRR | 0.7131 ± 0.0043
12 | NDQASVLSFRSV | 0.664 ± 0.063
13 | RSHLLPPPRHQH | 0.7333 ± 0.00099
14 | GPKGLLKATSLS | 0.659 ± 0.064
15 | FWEGETVPTSEP | 0.788 ± 0.045
16 | LARTSVACEGLG | 0.703 ± 0.045
17 | APTPPPVLLTPP | 0.6694 ± 0.0063
18 | SFSFLLSLSFLP | 0.529 ± 0.017
19 | HPLFCPPPPPLA | 0.708 ± 0.036
20 | IDVRRAIIPGLG | 0.595 ± 0.011
21 | PPSLRPSSSPPI | 0.724 ± 0.022
22 | GLYYRGPSKKER | 0.73 ± 0.02
23 | DLCLRSTLPLFL | 0.585 ± 0.016
24 | GRKKTSAGGNQE | 0.702 ± 0.11
25 | WRRGIRAKIDSI | 0.678 ± 0.015

Row | Sequence | protein stability index
26 | KRKDKKKKYIRK | 0.759 ± 0.085
27 | RGRGKAGGETTV | 0.686 ± 0.035
28 | PPPRRAPLSPSV | 0.669 ± 0.042
29 | YTSHPVLPEVNG | 0.695 ± 0.035
30 | EGGGAGGLMRPE | 0.65 ± 0.016
31 | KERLLTLHSHSH | 0.71 ± 0.037
32 | SKPTQQNRRPDG | 0.596 ± 0.028
33 | FFGGAGVTEGLG | 0.683 ± 0.043
34 | HYEIFSCDPGCD | 0.746 ± 0.024
35 | FGAGLTACPVSV | 0.517 ± 0.036
36 | RALRAGVGVRAC | 0.662 ± 0.08
37 | LAARHLNFPPIL | 0.711 ± 0.009
38 | PPPPPPLPPSPL | 0.634 ± 0.1
39 | PSPPPPPALPSH | 0.66 ± 0.13
40 | EKPIPFCSSVAS | 0.713 ± 0.063
41 | GVGMWCSRLRVG | 0.5952 ± 0.00044
42 | LRIYIKTGAKGV | 0.71448 ± 0.00053
43 | ITLSLGRQQIEL | 0.654 ± 0.013
44 | SDLDFSRLHGSA | 0.698 ± 0.056
45 | VVTSVLCGRVHL | 0.682 ± 0.0069
46 | GERLGEWGGGVG | 0.669 ± 0.0093
47 | SRSCRHGELKFA | 0.718 ± 0.0097
48 | SLPPSSPLPPVS | 0.665 ± 0.035
49 | ARPVSRWCEASY | 0.645 ± 0.025
50 | DGKNSGHGLAKT | 0.702 ± 0.087

Row | Sequence | protein stability index
51 | RRSLSVYPRFRT | 0.714 ± 0.037
52 | PPLPSPPPPSSP | 0.7157 ± 0.0022
53 | CVSTYLTCSITS | 0.54 ± 0.022
54 | PLPPPLPPPSPP | 0.647 ± 0.033
55 | PRSPPHLRWTRY | 0.686 ± 0.013
56 | RPEVRTGPASTH | 0.676 ± 0.032
57 | WWASFVGSFVGD | 0.878 ± 0.15
58 | PASLPTPLPLPP | 0.618 ± 0.016
59 | SVPPTCLHDAHF | 0.713 ± 0.053
60 | HMLSGRSFVRGD | 0.69 ± 0.038
61 | NGVRGRGGQWVQ | 0.725 ± 0.03
62 | RSSNNQRARPPQ | 0.627 ± 0.028
63 | KIPEQRISKTKK | 0.745 ± 0.011
64 | KQRSKKCRETYR | 0.729 ± 0.019
65 | GMFDCIPPGTIP | 0.741 ± 0.094
66 | VLALPSSPLLPS | 0.643 ± 0.1
67 | CRRCQRNRVLDG | 0.673 ± 0.068
68 | PPPRPPPFPLSC | 0.7134 ± 0.0065
69 | GRCRPATLRGPG | 0.656 ± 0.012
70 | CPPPTPPAPPLP | 0.74 ± 0.033
71 | ASEKFGIMSTML | 0.662 ± 0.045
72 | WFKSIREGKGSR | 0.68 ± 0.044
73 | VKEKKKDEKRKR | 0.747 ± 0.072
74 | DVISRSTRIMGE | 0.617 ± 0.018
75 | CFCGGFGVFVIF | 0.593 ± 0.014

Row | Sequence | protein stability index
76 | KGLSNGKNQIKM | 0.597 ± 0.036
77 | ERRPTYFFHDHE | 0.693 ± 0.055
78 | GFLCFRWACVRL | 0.487 ± 0.028
79 | RLIHRLLGLFPS | 0.69 ± 0.06
80 | MLRMSVSRGGLL | 0.729 ± 0.011
81 | SFSSPPPTLVPP | 0.693 ± 0.038
82 | GVLPRPPPTEGT | 0.722 ± 0.041
83 | PPPLPRRPASPL | 0.652 ± 0.014
84 | VFQFVLGVILGW | 0.5289 ± 0.0035
85 | DSSGATGLLYML | 0.746 ± 0.022
86 | VVRLTALTNATV | 0.671 ± 0.086
87 | GKKKIDDKGRWI | 0.678 ± 0.14
88 | YTWHKLFFAYAI | 0.528 ± 0.0059
89 | FPWFYPNHLEVP | 0.698 ± 0.063
90 | SSLLSPLRSAFL | 0.71 ± 0.066
91 | WGVCGVFLCLGV | 0.572 ± 0.11
92 | KALGFHGGLHRF | 0.5733 ± 0.0027
93 | RVRRAGSGWCGK | 0.729 ± 0.0073
94 | SEGSLIPGSHIA | 0.733 ± 0.066
95 | YLVGVRDSFALR | 0.715 ± 0.02
96 | RSGGSSPRRLFT | 0.7 ± 0.0095
97 | FPAPFLRVSPLW | 0.644 ± 0.048
98 | GVPRNSCHYPYG | 0.6462 ± 0.0049
99 | PPPPPFSPLFLP | 0.698 ± 0.12
100 | SGVILWSAWRDG | 0.7029 ± 0.0014

Row | Sequence | protein stability index
101 | PPSLPSVRLSLS | 0.685 ± 0.027
102 | RSLGGGVGARFV | 0.695 ± 0.037
103 | PPPLPSPPAFRP | 0.635 ± 0.045
104 | CSSVGGYGGFEV | 0.616 ± 0.013
105 | KKKKKKTKNEIK | 0.643 ± 0.016
106 | RSSGHQIRDKSA | 0.74 ± 0.022
107 | CVIVCETYFQCA | 0.53 ± 0.0088
108 | HLPRHVSLLGPP | 0.671 ± 0.0079
109 | LEVVVVGGVGGG | 0.687 ± 0.085
110 | TTYYTKPPRPKR | 0.69 ± 0.035
111 | FRLQQGCSRHVG | 0.671 ± 0.015
112 | WRVFPVVSCSSS | 0.6312 ± 0.0053
113 | PSPVLLPPFVSP | 0.706 ± 0.0089
114 | GGGRGVGCMGCR | 0.688 ± 0.015
115 | MPRRLSLNLDYL | 0.6563 ± 0.0064
116 | PPSPSNPNPLRP | 0.726 ± 0.019
117 | LAPPPPAPPMSP | 0.717 ± 0.013
118 | SPPPLRFPPPPP | 0.763 ± 0.13
119 | PSSCSPPPSSPS | 0.692 ± 0.064
120 | SFYIMSIQRKAK | 0.681 ± 0.052
121 | LPPLLAPPVSPL | 0.698 ± 0.039
122 | SPRPYFSLVLFF | 0.539 ± 0.0032
123 | SPRVRVYLTDTG | 0.7306 ± 0.0042
124 | KVGQWLRGKSKR | 0.7171 ± 0.00075
125 | PPLARLASPSRL | 0.7006 ± 0.0036

Row | Sequence | protein stability index
126 | RRGLRVTETPVR | 0.772 ± 0.011
127 | CRGRGFVVGGRR | 0.687 ± 0.035
128 | LAPPVRECPFML | 0.692 ± 0.072
129 | PPDLPVPRPSFR | 0.571
130 | CTYAPSGRNSHF | 0.7656 ± 0.0035
131 | RLDMKLAIDISR | 0.7631 ± 0.0011
132 | DDWNLQEAQSLY | 0.703 ± 0.053
133 | VSLYRRFLGVYS | 0.532 ± 0.011
134 | GRGGEGQGKRRE | 0.668 ± 0.034
135 | PSLPWSGPPVPC | 0.664 ± 0.013
136 | PHSVPPLTFPTS | 0.689 ± 0.037
137 | PPCRRGRTHGVY | 0.685 ± 0.024
138 | PTSSPAPPLFAF | 0.67 ± 0.028
139 | PPHSSPPPPPPS | 0.715 ± 0.028
140 | ERASGNWQVYKG | 0.639 ± 0.011
141 | SLAGWPPPSIST | 0.686 ± 0.013
142 | CFLERLAFPGLY | 0.633 ± 0.011
143 | NGKFLREKMRWG | 0.662 ± 0.036
144 | PLSLPPRPFLHH | 0.735 ± 0.017
145 | PPLSLPSSCPSP | 0.652 ± 0.1
146 | PTPVAHSLSLRI | 0.637 ± 0.033
